Values quoted from earlier work, collected in paper PMC12634839.

Biological target: FAM19A5 (Homo sapiens) (UniProt Q7Z5A7)
Test: SPR

Chain of UniProt Q7Z5A7 (Q7Z5A7 44-132): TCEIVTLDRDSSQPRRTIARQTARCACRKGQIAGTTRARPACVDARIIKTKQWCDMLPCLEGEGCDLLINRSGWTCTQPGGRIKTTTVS

## LRRC4B 453-576 (from UniProt Q9NT99)
  Kd: 0.032 nM
